Our source for the cellular penetration values is US9163330B2, “Bifunctional stapled polypeptides and uses thereof” (President and Fellows of Harvard College, priority 2009, dated 2015).

Positions of bridges follow the written chain, without caps; N, C: chain ends. Non-standard residues stand in square brackets, D forms with d. No end group written: not given here. S5 = C=CCCC[C@](C)(N)C(=O)O; βAla = NCCC(=O)O

In the data set the test system is Hela cells. The data set is described as follows: Confocal microscopy of Hela cells treated with FITC-conjugated SID-series peptides. The class given is cell-based. The settings on record: FITC-conjugated peptide, 10 μM, 6 hours, 37° C. The protocol: HeLa cells were grown on chamber slides overnight. 10 mM FITC-SID peptides in DMSO stock solutions were diluted in cell media to a final concentration of 10 μM, along with a 10 μM DMSO control. Cells were incubated in peptide/vehicle solutions at 37° C. for 6 hours, then washed thoroughly with media and PBS, and fixed with 4% paraformaldehyde. Slides were stained with Vectashield™ Hardset with DAPI. Images were taken with a Zeiss 710 confocal microscope.

“βAla-VRRRI*MLL*AANYLER ([βAla]VRRRI[S5]MLL[S5]AANYLER; staple 7-11) [SID2]”: the cellular penetration result is recorded as “robust cellular penetration”.

With “βAla-VRRRIQMLLEAANK*ERR*R ([βAla]VRRRIQMLLEAANK[S5]ERR[S5]R; staple 16-20) [SID5]”, the cellular penetration entry is reported as “robust cellular penetration”.
